Common to all, as to test: [125I]-NDP-α-MSH competition, membranes
Experiment [1] concerns the target T1, human melanocortin receptor subtype 4 (hMC4-R) (human, UniProt P32245 1-332).
T1 construct: whole, on cells; membranes of CHO-K1 cells

For experiment [2], the target named is T2, human melanocortin receptor subtype 3 (hMC3-R) (human, UniProt P41968 1-323).
T2 construct: whole, on cells; membranes of CHO-K1 cells

The target in experiment [3] is T3, human melanocortin receptor subtype 5 (hMC5-R) (human, UniProt P33032 1-325).
T3 construct: whole, on cells; membranes of CHO-K1 cells

Experiment [4] concerns the target T4, human melanocortin receptor subtype 1 (hMC1-R) (human, UniProt Q01726 1-317).
T4 construct: whole, on cells; membranes of CHO-K1 cells

Bridge positions count the residues as written; N and C are the ends. Square brackets hold non-standard residues; d marks the D form. 1Nal = N[C@@H](Cc1cccc2ccccc12)C(=O)O; 2Nal = N[C@@H](Cc1ccc2ccccc2c1)C(=O)O; d2Nal = N[C@H](Cc1ccc2ccccc2c1)C(=O)O; Bta = N[C@@H](Cc1csc2ccccc12)C(=O)O; βAla = NCCC(=O)O

T4 sequence (Q01726 whole entry): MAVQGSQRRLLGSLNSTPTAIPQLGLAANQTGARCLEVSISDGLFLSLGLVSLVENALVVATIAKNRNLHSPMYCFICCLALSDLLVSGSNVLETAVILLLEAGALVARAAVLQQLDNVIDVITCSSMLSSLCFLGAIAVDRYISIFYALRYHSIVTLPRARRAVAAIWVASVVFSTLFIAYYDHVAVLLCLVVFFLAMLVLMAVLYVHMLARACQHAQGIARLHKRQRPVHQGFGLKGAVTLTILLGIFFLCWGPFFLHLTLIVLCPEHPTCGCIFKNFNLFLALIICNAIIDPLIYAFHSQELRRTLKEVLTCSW
T2 sequence (P41968 whole entry): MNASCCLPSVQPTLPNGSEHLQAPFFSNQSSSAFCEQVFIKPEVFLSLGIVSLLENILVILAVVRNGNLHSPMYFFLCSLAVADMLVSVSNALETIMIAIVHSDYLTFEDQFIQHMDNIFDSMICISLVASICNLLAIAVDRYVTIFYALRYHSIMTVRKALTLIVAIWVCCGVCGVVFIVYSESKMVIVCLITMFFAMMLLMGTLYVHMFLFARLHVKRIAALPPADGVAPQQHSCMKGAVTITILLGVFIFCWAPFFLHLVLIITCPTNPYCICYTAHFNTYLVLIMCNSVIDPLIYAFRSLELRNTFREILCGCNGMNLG
T1 sequence (P32245 whole entry): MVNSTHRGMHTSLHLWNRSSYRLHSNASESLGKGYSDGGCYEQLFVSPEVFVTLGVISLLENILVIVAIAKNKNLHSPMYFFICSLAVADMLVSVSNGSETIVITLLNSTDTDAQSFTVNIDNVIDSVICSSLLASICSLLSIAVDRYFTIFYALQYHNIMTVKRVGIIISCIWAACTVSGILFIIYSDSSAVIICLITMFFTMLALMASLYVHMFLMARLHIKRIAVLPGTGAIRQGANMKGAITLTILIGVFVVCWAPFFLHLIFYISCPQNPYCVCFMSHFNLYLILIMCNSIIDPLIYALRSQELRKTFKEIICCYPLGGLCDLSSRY
T3 sequence (P33032 whole entry): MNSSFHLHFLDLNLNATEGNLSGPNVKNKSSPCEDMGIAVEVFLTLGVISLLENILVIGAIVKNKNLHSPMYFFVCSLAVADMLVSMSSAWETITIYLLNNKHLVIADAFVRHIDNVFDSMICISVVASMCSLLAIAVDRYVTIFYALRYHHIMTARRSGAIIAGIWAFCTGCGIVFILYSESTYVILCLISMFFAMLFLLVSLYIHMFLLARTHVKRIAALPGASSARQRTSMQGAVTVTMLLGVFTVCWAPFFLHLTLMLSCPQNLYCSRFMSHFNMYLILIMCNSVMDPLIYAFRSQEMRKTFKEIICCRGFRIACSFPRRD

For the molecule Ac-CEH[d2Nal]R[Bta]ACPPKD[βAla]GRRRRRQRRR-NH2 (disulfide 1-8), the Ki in experiment [1] was 0.95 nM; in experiment [2], 15.9 nM; in experiment [3], 165 nM; in experiment [4] it was 12.8 nM.

B1: Ac-c(Cys-Glu-His-D-2-Nal-Arg-1-Nal-Ala-Cys)-Pro-Pro-Lys-Asp-β-[…]NH2 (peptide)
peptide: Ac-CEH[d2Nal]R[1Nal]ACPPKD[βAla]GRRKRRQRRR-NH2
modifications: disulfide 1-8
SMILES: CC(=O)N[C@H]1CSSC[C@@H](C(=O)N2CCC[C@H]2C(=O)N2CCC[C@H]2C(=O)N[C@@H](CCCCN)C(=O)N[C@@H](CC(=O)O)C(=O)NCCC(=O)NCC(=O)N[C@@H](CCCNC(=N)N)C(=O)N[C@@H](CCCNC(=N)N)C(=O)N[C@@H](CCCCN)C(=O)N[C@@H](CCCNC(=N)N)C(=O)N[C@@H](CCCNC(=N)N)C(=O)N[C@@H](CCC(N)=O)C(=O)N[C@@H](CCCNC(=N)N)C(=O)N[C@@H](CCCNC(=N)N)C(=O)N[C@@H](CCCNC(=N)N)C(N)=O)NC(=O)[C@H](C)NC(=O)[C@H](Cc2cccc3ccccc23)NC(=O)[C@H](CCCNC(=N)N)NC(=O)[C@@H](Cc2ccc3ccccc3c2)NC(=O)[C@H](Cc2c[nH]cn2)NC(=O)[C@H](CCC(=O)O)NC1=O
For B1, the Ki in experiment [1] worked out at 0.305 nM; in experiment [2], 2.08 nM; in experiment [3], 19.3 nM; in experiment [4], 1.81 nM.

In the case of Ac-CEH[d2Nal]R[1Nal]ACPPKD[βAla]RRRRRRQRRR-NH2 (disulfide 1-8), the Ki in experiment [1] amounted to 0.819 nM; in experiment [2] it was 19.3 nM; in experiment [3] it was 88.8 nM; in experiment [4], 6.66 nM.

B2: Ac-c(Cys-Glu-His-D-2-Nal-Arg-Bal-Ala-Cys)-Pro-Pro-Arg-Asp-β-[…]NH2 (peptide)
peptide: Ac-CEH[d2Nal]R[Bta]ACPPRD[βAla]RRRRRRQRRR-NH2
modifications: disulfide 1-8
SMILES: CC(=O)N[C@H]1CSSC[C@@H](C(=O)N2CCC[C@H]2C(=O)N2CCC[C@H]2C(=O)N[C@@H](CCCNC(=N)N)C(=O)N[C@@H](CC(=O)O)C(=O)NCCC(=O)N[C@@H](CCCNC(=N)N)C(=O)N[C@@H](CCCNC(=N)N)C(=O)N[C@@H](CCCNC(=N)N)C(=O)N[C@@H](CCCNC(=N)N)C(=O)N[C@@H](CCCNC(=N)N)C(=O)N[C@@H](CCCNC(=N)N)C(=O)N[C@@H](CCC(N)=O)C(=O)N[C@@H](CCCNC(=N)N)C(=O)N[C@@H](CCCNC(=N)N)C(=O)N[C@@H](CCCNC(=N)N)C(N)=O)NC(=O)[C@H](C)NC(=O)[C@H](Cc2csc3ccccc23)NC(=O)[C@H](CCCNC(=N)N)NC(=O)[C@@H](Cc2ccc3ccccc3c2)NC(=O)[C@H](Cc2c[nH]cn2)NC(=O)[C@H](CCC(=O)O)NC1=O
Consider B2, for which the Ki amounted to 0.659 nM in experiment [1], 11 nM in experiment [2], 78 nM in experiment [3] and 7.32 nM in experiment [4].

As to Ac-CEH[d2Nal]R[Bta]ACPPKD[βAla]RRRRRRQRRR-NH2 (disulfide 1-8), the Ki in experiment [1] was found to be 0.781 nM; in experiment [2], 14.3 nM; in experiment [3], 84 nM; in experiment [4], 6.77 nM.

B3: Ac-c(Cys-Glu-His-D-2-Nal-Arg-Bal-Ala-Cys)-Pro-Pro-Lys-Asp-β-[…]NH2 (peptide)
peptide: Ac-CEH[d2Nal]R[Bta]ACPPKD[βAla]GRRKRRQRRR-NH2
modifications: disulfide 1-8
SMILES: CC(=O)N[C@H]1CSSC[C@@H](C(=O)N2CCC[C@H]2C(=O)N2CCC[C@H]2C(=O)N[C@@H](CCCCN)C(=O)N[C@@H](CC(=O)O)C(=O)NCCC(=O)NCC(=O)N[C@@H](CCCNC(=N)N)C(=O)N[C@@H](CCCNC(=N)N)C(=O)N[C@@H](CCCCN)C(=O)N[C@@H](CCCNC(=N)N)C(=O)N[C@@H](CCCNC(=N)N)C(=O)N[C@@H](CCC(N)=O)C(=O)N[C@@H](CCCNC(=N)N)C(=O)N[C@@H](CCCNC(=N)N)C(=O)N[C@@H](CCCNC(=N)N)C(N)=O)NC(=O)[C@H](C)NC(=O)[C@H](Cc2csc3ccccc23)NC(=O)[C@H](CCCNC(=N)N)NC(=O)[C@@H](Cc2ccc3ccccc3c2)NC(=O)[C@H](Cc2c[nH]cn2)NC(=O)[C@H](CCC(=O)O)NC1=O
On to B3, for which the Ki in experiment [1] was 0.573 nM; in experiment [2] it was 1.59 nM; in experiment [3], 15.7 nM; in experiment [4], 2.5 nM.

B4: Ac-c(Cys-Glu-His-D-2-Nal-Arg-1-Nal-Ala-Cys)-Pro-Pro-Lys-Asp-β-[…]NH2 (peptide)
peptide: Ac-CEH[d2Nal]R[1Nal]ACPPKD[βAla]GRKRRRQRRR-NH2
modifications: disulfide 1-8
SMILES: CC(=O)N[C@H]1CSSC[C@@H](C(=O)N2CCC[C@H]2C(=O)N2CCC[C@H]2C(=O)N[C@@H](CCCCN)C(=O)N[C@@H](CC(=O)O)C(=O)NCCC(=O)NCC(=O)N[C@@H](CCCNC(=N)N)C(=O)N[C@@H](CCCCN)C(=O)N[C@@H](CCCNC(=N)N)C(=O)N[C@@H](CCCNC(=N)N)C(=O)N[C@@H](CCCNC(=N)N)C(=O)N[C@@H](CCC(N)=O)C(=O)N[C@@H](CCCNC(=N)N)C(=O)N[C@@H](CCCNC(=N)N)C(=O)N[C@@H](CCCNC(=N)N)C(N)=O)NC(=O)[C@H](C)NC(=O)[C@H](Cc2cccc3ccccc23)NC(=O)[C@H](CCCNC(=N)N)NC(=O)[C@@H](Cc2ccc3ccccc3c2)NC(=O)[C@H](Cc2c[nH]cn2)NC(=O)[C@H](CCC(=O)O)NC1=O
Consider B4, for which the Ki in experiment [1] stood at 0.243 nM; in experiment [2], 2.59 nM; in experiment [3], 19.2 nM; in experiment [4] it was 2.69 nM.

B5: Ac-c(Cys-Glu-His-D-2-Nal-Arg-2-Nal-Ala-Cys)-Pro-Pro-Lys-Asp-β-[…]NH2 (peptide)
peptide: Ac-CEH[d2Nal]R[2Nal]ACPPKD[βAla]GRRKRRQRRR-NH2
modifications: disulfide 1-8
SMILES: CC(=O)N[C@H]1CSSC[C@@H](C(=O)N2CCC[C@H]2C(=O)N2CCC[C@H]2C(=O)N[C@@H](CCCCN)C(=O)N[C@@H](CC(=O)O)C(=O)NCCC(=O)NCC(=O)N[C@@H](CCCNC(=N)N)C(=O)N[C@@H](CCCNC(=N)N)C(=O)N[C@@H](CCCCN)C(=O)N[C@@H](CCCNC(=N)N)C(=O)N[C@@H](CCCNC(=N)N)C(=O)N[C@@H](CCC(N)=O)C(=O)N[C@@H](CCCNC(=N)N)C(=O)N[C@@H](CCCNC(=N)N)C(=O)N[C@@H](CCCNC(=N)N)C(N)=O)NC(=O)[C@H](C)NC(=O)[C@H](Cc2ccc3ccccc3c2)NC(=O)[C@H](CCCNC(=N)N)NC(=O)[C@@H](Cc2ccc3ccccc3c2)NC(=O)[C@H](Cc2c[nH]cn2)NC(=O)[C@H](CCC(=O)O)NC1=O
On to B5, for which the Ki in experiment [1] was found to be 0.202 nM; in experiment [2], 0.732 nM; in experiment [3] it was 5.53 nM; in experiment [4] it was 2.71 nM.

B6: Ac-c(Cys-Glu-His-D-2-Nal-Arg-2-Nal-Ala-Cys)-Pro-Pro-Lys-Asp-β-[…]NH2 (peptide)
peptide: Ac-CEH[d2Nal]R[2Nal]ACPPKD[βAla]RKRRRQRRR-NH2
modifications: disulfide 1-8
SMILES: CC(=O)N[C@H]1CSSC[C@@H](C(=O)N2CCC[C@H]2C(=O)N2CCC[C@H]2C(=O)N[C@@H](CCCCN)C(=O)N[C@@H](CC(=O)O)C(=O)NCCC(=O)N[C@@H](CCCNC(=N)N)C(=O)N[C@@H](CCCCN)C(=O)N[C@@H](CCCNC(=N)N)C(=O)N[C@@H](CCCNC(=N)N)C(=O)N[C@@H](CCCNC(=N)N)C(=O)N[C@@H](CCC(N)=O)C(=O)N[C@@H](CCCNC(=N)N)C(=O)N[C@@H](CCCNC(=N)N)C(=O)N[C@@H](CCCNC(=N)N)C(N)=O)NC(=O)[C@H](C)NC(=O)[C@H](Cc2ccc3ccccc3c2)NC(=O)[C@H](CCCNC(=N)N)NC(=O)[C@@H](Cc2ccc3ccccc3c2)NC(=O)[C@H](Cc2c[nH]cn2)NC(=O)[C@H](CCC(=O)O)NC1=O
B6: the Ki in experiment [1] was found to be 0.303 nM; in experiment [2] it was 0.62 nM; in experiment [3] it was 2.77 nM; in experiment [4] it was 2.25 nM.

B7: Ac-c(Cys-Glu-His-D-2-Nal-Arg-Bal-Ala-Cys)-Pro-Pro-Lys-Asp-β-[…]NH2 (peptide)
peptide: Ac-CEH[d2Nal]R[Bta]ACPPKD[βAla]RKRRRQRRR-NH2
modifications: disulfide 1-8
SMILES: CC(=O)N[C@H]1CSSC[C@@H](C(=O)N2CCC[C@H]2C(=O)N2CCC[C@H]2C(=O)N[C@@H](CCCCN)C(=O)N[C@@H](CC(=O)O)C(=O)NCCC(=O)N[C@@H](CCCNC(=N)N)C(=O)N[C@@H](CCCCN)C(=O)N[C@@H](CCCNC(=N)N)C(=O)N[C@@H](CCCNC(=N)N)C(=O)N[C@@H](CCCNC(=N)N)C(=O)N[C@@H](CCC(N)=O)C(=O)N[C@@H](CCCNC(=N)N)C(=O)N[C@@H](CCCNC(=N)N)C(=O)N[C@@H](CCCNC(=N)N)C(N)=O)NC(=O)[C@H](C)NC(=O)[C@H](Cc2csc3ccccc23)NC(=O)[C@H](CCCNC(=N)N)NC(=O)[C@@H](Cc2ccc3ccccc3c2)NC(=O)[C@H](Cc2c[nH]cn2)NC(=O)[C@H](CCC(=O)O)NC1=O
As to B7, the Ki in experiment [1] came to 0.575 nM; in experiment [2] it was 1.95 nM; in experiment [3], 15.5 nM; in experiment [4], 3.28 nM.

B8: Ac-c(Cys-Glu-His-D-2-Nal-Arg-Bal-Ala-Cys)-Pro-Pro-Arg-Asp-β-[…]NH2 (peptide)
peptide: Ac-CEH[d2Nal]R[Bta]ACPPRD[βAla]RRRRRQRRR-NH2
modifications: disulfide 1-8
SMILES: CC(=O)N[C@H]1CSSC[C@@H](C(=O)N2CCC[C@H]2C(=O)N2CCC[C@H]2C(=O)N[C@@H](CCCNC(=N)N)C(=O)N[C@@H](CC(=O)O)C(=O)NCCC(=O)N[C@@H](CCCNC(=N)N)C(=O)N[C@@H](CCCNC(=N)N)C(=O)N[C@@H](CCCNC(=N)N)C(=O)N[C@@H](CCCNC(=N)N)C(=O)N[C@@H](CCCNC(=N)N)C(=O)N[C@@H](CCC(N)=O)C(=O)N[C@@H](CCCNC(=N)N)C(=O)N[C@@H](CCCNC(=N)N)C(=O)N[C@@H](CCCNC(=N)N)C(N)=O)NC(=O)[C@H](C)NC(=O)[C@H](Cc2csc3ccccc23)NC(=O)[C@H](CCCNC(=N)N)NC(=O)[C@@H](Cc2ccc3ccccc3c2)NC(=O)[C@H](Cc2c[nH]cn2)NC(=O)[C@H](CCC(=O)O)NC1=O
For B8, the Ki turned out to be 0.302 nM in experiment [1], 7.26 nM in experiment [2], 48.3 nM in experiment [3] and 4.11 nM in experiment [4].

What is called Ki is the equilibrium dissociation constant of an inhibitor or competing ligand from its target. A high value points to weaker binding.

(Values after US20120135923A1 (IPSEN PHARMA S A S, published 2012).)
